Data from patent publication US20250382346A1, “NEURONAL PROMOTERS AND USES THEREOF” (priority 2023, published 2025).

Assays:
Type in all cases: in vivo, mice
[1] = system: striatonigral projection neurons (D1 MSNs); assay: Retrograde labeling of striatal MSNs after AAV injection into the SNr, EYFP+ cell counting; details: for labeled neurons, reporter expression in MSNs by promoter (FIG. 4B), mean±SEM: promoter comparison
Protocol: To improve efficiency, multiple rounds of mutations of AAV capsids were performed on a series of different serotypes. Mutations were introduced at three sites in the AAV8 capsid protein to make AAV8R, including N385D, insertion of […] (SEQ ID NO: 31) at position 588, and TS711-7121N. Two additional mutations of V183E and N41 IS were incorporated into the AAV8R12 capsid protein (FIG. 1A). The labeling pattern of the AAV8R12 capsid and G88 promoter combination was determined.
was inserted at the N587-R588 position; two other point mutations of the AAV2 Cap protein were made to develop rAAV2-retro. Similar mutations were then placed at equivalent positions for four other AAV serotypes (FIGS. 1A-1C and 25, TABLE 1), AAV1/5/6/8 (FIG. 1A). […] When administered into the SNr, 4.86±0.22 times EYFP positive MSNs in mice infected by AAV8R-hSyn-EYFP were observed as compared to those infected by rAAV2-retro-hSyn-EYFP (FIG. 2A-2C).
Baseline infectivity of rAAV2-retro was approximately 0.2±0.03×10^4 cells per striatal hemisphere (using a hSyn promoter) (TABLE 2). […] Compared to the current standard retrograde AAV, rAAV2-retro, AAV8R12 labeled 7.72±0.78-times more MSNs after nigral delivery (FIG. 2B-2C, TABLE 1). […] The AAV8R12 was generated using the AAV8R plasmid as a template.
Mice were anesthetized with sodium pentobarbital (Nembutal; 80 mg/kg, i.p.), and then placed into a stereotaxic device (KOPF). Eye cream was applied on both corneas to avoid dehydration. The skull above the targeted areas was thinned with a dental drill and carefully removed. Injections were conducted with a 10 μL syringe connected to a 33-Gauge needle (Neuros; Hamilton), using a microsyringe pump (Legato 130, KD Scientific). A total volume of 200 nL virus was injected into the SNr at a speed of 20 nL/min. The coordinates for the SNr were 3.4 mm posterior, 1.3 mm lateral, 4.8 mm ventral to the bregma.
Images were acquired using a confocal microscope (Carl Zeiss, LSM880) and an Axiolmager. Z1 microscope with apotome (Carl Zeiss). Brain structures were identified microscopically and in digital photos using a mouse brain atlas. To analyze the number of EYFP+ cells in the striatum, slices from rostral to caudal striatum were used. Every sixth section was analyzed, and numbers of EYFP+ cells were multiplied by six to acquire the approximate total number and mean number of cells per animal. Images were processed using ImageJ (NIH, USA), and final quantifications were independently performed manually by two blinded experimenters.

[2] = system: striatum (STR); assay: Promoter screening: YFP-expressing neurons after injection of AAVs into the SNr, striatum; details: numbers of YFP-expressing neurons per animal
Source text: (§1) To find promoters that offer high levels of expression in MSNs, gene expression databases were scanned to identify a list of eight genes that have highly enriched striatal expression compared to other parts of the basal ganglia (BG). Genes highly expressed in the striatum, but not other parts of the basal ganglia, were first selected as candidates.
(§2) Brain profiles of two epigenetic marks for enhancers and promoters, monomethylation of histone H3 lysine 4 (H3K4me1) and acetylation of histone H3 lysine 27 (H3K27ac) were checked and approximately 2 kilobase-long sequences around the transcriptional start site (TSS) that have high levels of H3K4me1 and/or H3K27ac were identified in mouse brain. Homologous sequences at equivalent positions of the human genome were then cloned onto an AAV backbone, and the activity of the homologous sequences in directing reporter expression was tested in mice after injections of AAVs into the SNr (FIG. 3A-C, TABLE 3).
(§3) G88P2 (2259 bp) was cloned with the following primers: 5′-[…] (SEQ ID NO.: 36) and 3-[…] (SEQ ID NO.: 37). To increase the payload of AAV genome, the G88P2 promoter was shorted using restriction enzymes, and two derivatives, G88P3 and G88P7, were made which were 1395-bp and 896-bp long, respectively (FIG. 3A-3C). Comparative efficiency in labeling MSNs for the two shortened promoters was observed. For mice that received viral injections into the SNr, viruses expressing EYFP driven by G88P3 and G88P7 promoters labeled 3.7±0.66×104 and 3.95±0.73×104 MSNs per mouse, respectively, compared to 1.61±0.16×104 labeled MSNs by hSyn promoter (FIG. 4B).
(§4) Region-selective promoter identification was based on the Allen Brain Atlas in situ hybridization (ISH) data (mouse.brain-map.org/). Genes highly expressed in the striatum but not in other parts of the basal ganglia were first selected as candidates. H3K4me 1 and H3K27ac are known epigenetic marks for active promoters and enhancers. Thus, we identified regions with high levels of these two chromatin modification marks in mouse brain as candidate regions based on the ENCODE annotation data on the UCSC Genome Browser (genome.ucsc.edu/). To further extend the promoters' potential application in primates, the sequences of interest were PCR-amplified from human genomic DNA. Based on the above strategies, GPR88 was selected as a candidate gene. […]
(§5) Images were acquired using a confocal microscope (Carl Zeiss, LSM880) and an Axiolmager. […] Every sixth section was analyzed, and numbers of EYFP+ cells were multiplied by six to acquire the approximate total number and mean number of cells per animal. Images were processed using ImageJ (NIH, USA), and final quantifications were independently performed manually by two blinded experimenters.

[3] = system: substantia nigra (SN); assay: Promoter screening: YFP-expressing neurons after injection of AAVs into the SNr, substantia nigra; details: numbers of YFP-expressing neurons per animal
Source text: as §1, §2, §3, §4, §5

[4] = system: MSNs in nucleus accumbens; assay: Retrograde labeling of accumbal MSNs after delivery into ventral pallidum or lateral hypothalamus; details: stereotaxic delivery into ventral pallidum or lateral hypothalamus

With “G88P2: 2259-bp promoter from the gene GPR88; SEQ ID NO: 44” the “labeled neurons, reporter expression in MSNs by promoter (FIG. 4B), mean±SEM” value (shortened to “labeled neurons, reporter expression … mean±SEM”) ([1]; n=3 mice per group) was 36290±3705, the “Activity Level STR” value [2] was “++++ (>25k)” and the “Activity Level SN” value [3] was “+ (<5k)”.

“R9P1: promoter from gene RGS9, 2152 bp; SEQ ID NO: 47” was tested, and the “Activity Level STR” value [2] was “+++ (10k-25k)” and the “Activity Level SN” value [3] was “+ (<5k)”.

B1: G88P3: 1395-bp shortened GPR88 promoter; SEQ ID NO: 45 (nucleic acid, listed as Homo sapiens)
DNA: TCTAGATGTACCACTGACATCTGCTTTAAATCTTTTGCCCATTTCATTTTTACCCTCTAACCATTTCATTACTAAAACACAAAACAAACTCCGGAAAGGAGTTTGTTGATGAGAAAACACTGAAAGTACGATTTAAATTGAGGAATGGAGATTTTCTGTGGATAATTGTCTATGTTCCACTTTACCAAAGAAAAATGAATTTCAAGTAGTGCATAAAGTAATTCTCGTTAAAAAATGTGGGAATAAAGAGATCAGTCCTGGGTACTGGGAATATATTTATCTCACAGAAAAATCTTGCCCACAAAATGCATCAGACTGAGATGAAATACTCTAGGGTATATTAAATTTTATTCTAATATTGAAGGGAGGGAAAAAAAGGACGGAAAGAAAAATGAAACAGGATGAAAAATAAGGTGATTGGGAGAGAGAAAAGACAGAGAAACTTGTTAACGACAGGACTTTCTGAGCAAGATATTTTTCTTCCTTTTACAAGTTGGAAGCTATTGAATAATTCATGCCAAGCGTGGAAAGGCTGTCTTTTCCCTGGATGATGTATAACTAAGCAGGAGAGAGCTTCGAGTGGGTTCACCACATCAGCCACCACTCCTGCTTCTGAGCACAGGGTGCTCTCCTCTTGAGCTCAGCTTCTGCTTTTGCAGCCAAGCATTCTTGCTGCTGCTGCCTGCCTGCCCACCCGCCTGGGCTTGCAGCCCGCCACTTTACTTTCTCCAGCCCTGATACCAGCTGAGAAGTCTCCCTGCAGCTGCTAGTTCCTGCCCAGGACCATGTGTGTGGATGCTGCTTGGGAGAAGCGGGCACTTGCTCCTGGCACTGATCCCAGCTGAGTTTCTCCTGTTGATTTCTGGACCACTGATGCTGTTGCTGAGGAGGTATTTCCCGGCATCCCTCCCCCTGAGACACCGGCTAAGGACCAGCCTAAACGCAAGGTAACCTTCACCTCTTTCCCATGGGATTTTCCCCAGCTGGGATATCTCTGCTTTCTCCTGGAACTAGGTCCTCCAGCTGGCAACATATCTCTCTCTCTCTCTCTCTCTCTCTCTCTCTCTCTCTGTGTGTGTGTGTGTGTGTTGGGGGAGAAGAGGAGACTGTTTTAGGTATTGCTCTGTCCTAGGGCTTCCCCGATACCTGCTGAATCCAATGCAAAGTGGCCTTTCCCCTGGCTCTGGAGACATTTCCGAGGCAGGCACCTGTCATTTGCCACCCCCGTCCTCCTCCTCGAGCTCCCTTTCTCCCCCTCCCCCAGCCCATTATTCTGCTTCAGCCTTTTGTGTCAGTGGCAGAGGGCTGAAGGGATGTCTTTGCCCTTCTGGCAGGCAGGACAGTGTCAGGATGGACCGCGCTGCCAGAAGCCGACGCTAGCGAGGGAGGTGTGAA
With B1 the “labeled neurons, reporter expression … mean±SEM” value ([1]; n=3 mice per group) was 37026±6646, the “Activity Level STR” value [2] was “++++ (>25k)” and the “Activity Level SN” value [3] was “+ (<5k)”.

B2: G88P7: 896-bp shortened GPR88 promoter; SEQ ID NO: 46 (nucleic acid, listed as Homo sapiens)
DNA: ATGCCAAGCGTGGAAAGGCTGTCTTTTCCCTGGATGATGTATAACTAAGCAGGAGAGAGCTTCGAGTGGGTTCACCACATCAGCCACCACTCCTGCTTCTGAGCACAGGGTGCTCTCCTCTTGAGCTCAGCTTCTGCTTTTGCAGCCAAGCATTCTTGCTGCTGCTGCCTGCCTGCCCACCCGCCTGGGCTTGCAGCCCGCCACTTTACTTTCTCCAGCCCTGATACCAGCTGAGAAGTCTCCCTGCAGCTGCTAGTTCCTGCCCAGGACCATGTGTGTGGATGCTGCTTGGGAGAAGCGGGCACTTGCTCCTGGCACTGATCCCAGCTGAGTTTCTCCTGTTGATTTCTGGACCACTGATGCTGTTGCTGAGGAGGTATTTCCCGGCATCCCTCCCCCTGAGACACCGGCTAAGGACCAGCCTAAACGCAAGGTAACCTTCACCTCTTTCCCATGGGATTTTCCCCAGCTGGGATATCTCTGCTTTCTCCTGGAACTAGGTCCTCCAGCTGGCAACATATCTCTCTCTCTCTCTCTCTCTCTCTCTCTCTCTCTCTCTCTGTGTGTGTGTGTGTGTGTTGGGGGAGAAGAGGAGACTGTTTTAGGTATTGCTCTGTCCTAGGGCTTCCCCGATACCTGCTGAATCCAATGCAAAGTGGCCTTTCCCCTGGCTCTGGAGACATTTCCGAGGCAGGCACCTGTCATCTGCCACCCCCGTCCTCCTCCTCGAGCTCCCTTTCTCCCCCTCCCCCAGCCCATTATTCTGCTTCAGCCTTTTGTGTCAGTGGCAGAGGGCTGAAGGGATGTCTTTGCCCTTCTGGCAGGCAGGACAGTGTCAGGATGGACCGCGCTGCCAGAAGCCGACGCTAGCGAGGGAGGTGTGAAGAGTTGGCCAG
B2 was tested, and the “labeled neurons, reporter expression … mean±SEM” value ([1]; n=3 mice per group) was 39460±7281, the “Activity Level STR” value [2] was “++++ (>25k)” and the “Activity Level SN” value [3] was “+ (<5k)”.

B3: AAV8R: AAV8 capsid with N385D, insertion of SEQ ID NO: 31 at position 588 and TS to IN mutation; Cap SEQ ID NO: 1 (protein)
chain: MAADGYLPDWLEDNLSEGIREWWALKPGAPKPKANQQKQDDGRGLVLPGYKYLGPFNGLDKGEPVNAADAAALEHDKAYDQQLQAGDNPYLRYNHADAEFQERLQEDTSFGGNLGRAVFQAKKRVLEPLGLVEEGAKTAPGKKRPVEPSPQRSPDSSTGIGKKGQQPARKRLNFGQTGDSESVPDPQPLGEPPAAPSGVGPNTMAAGGGAPMADNNEGADGVGSSSGNWHCDSTWLGDRVITTSTRTWALPTYNNHLYKQISNGTSGGATNDNTYFGYSTPWGYFDFNRFHCHFSPRDWQRLINNNWGFRPKRLSFKLFNIQVKEVTQNEGTKTIANNLTSTIQVFTDSEYQLPYVLGSAHQGCLPPFPADVFMIPQYGYLTLNDGSQAVGRSSFYCLEYFPSQMLRTGNNFQFTYTFEDVPFHSSYAHSQSLDRLMNPLIDQYLYYLSRTQTTGGTANTQTLGFSQGGPNTMANQAKNWLPGPCYRQQRVSTTTGQNNNSNFAWTAGTKYHLNGRNSLANPGIAMATHKDDEERFFPSNGILIFGKQNAARDNADYSDVMLTSEEEIKTTNPVATEEYGIVADNLQRGNLADQDYTKTARQAATADVNSQGALPGMVWQNRDVYLQGPIWAKIPHTDGNFHPSPLMGGFGLKHPPPQILIKNTPVPADPPTTFNQSKLNSFITQYSTGQVSVEIEWELQKENSKRWNPEIQYTSNYYKSINVDFAVNTEGVYSEPRPIGTRYLTRNL
In the case of B3, the “EYFP positive / labeled MSNs compared to rAAV2-retro” value ([1]; after nigral delivery, hSyn-EYFP) is reported as 4.86±0.22 times, the “labeled striatonigral projection neurons (FIG. 2C), mean±SEM” value ([1]; capsid comparison, injection into SNr of wild type mice, n=3 mice per group) is reported as 10092±463.9 and the “Mean (AAVs with capsid and promoter)” value ([1]; labeled cells after nigral injection in mice, b188 refers to it as cells per striatal hemisphere, SD and SEM in own columns) is reported as 10092. For the same molecule, the “labeling of MSNs in nucleus accumbens” value [4] was “robust labeling of MSNs”.
